Usually koff stands for the first-order rate constant of dissociation. Low readings indicate a long-lived complex, high ones a short-lived complex.

Consider 24 molecules from patent publication US20240132624A1 (Ablynx, published 2024).

B1: T0263018B11 S52aM (VHH, name in Kabat numbering)
VHH: EVQLVESGGGVVQPGGSLRLSCAASGFTFSSYAMYWVRQAPGKGLEWVSAISMGGGSTDYADSVKGRFTISRDNSKNTLYLQMNSLRPEDTALYYCAADTLYTSLTWYSYWGQGTLVTVSS
notes: FLAG3-His6 tagged
B2: T0263018B11 S56V (VHH, name in Kabat numbering)
VHH: B1 VHH with M53S, S57V
notes: FLAG3-His6 tagged
B3: T0263018B11 S52aW (VHH, name in Kabat numbering)
VHH: B1 VHH with M53W
notes: FLAG3-His6 tagged
B4: T0263018B11 S101M (VHH, name in Kabat numbering)
VHH: B1 VHH with M53S, S109M
notes: FLAG3-His6 tagged
B5: T0263018B11 S56L (VHH, name in Kabat numbering)
VHH: B1 VHH with M53S, S57L
notes: FLAG3-His6 tagged
B6: T0263018B11 S101A (VHH, name in Kabat numbering)
VHH: B1 VHH with M53S, S109A
notes: FLAG3-His6 tagged
B7: T0263018B11 S100K (VHH, name in Kabat numbering)
VHH: B1 VHH with M53S, S104K
notes: FLAG3-His6 tagged
B8: T0263018B11 S56A (VHH, name in Kabat numbering)
VHH: B1 VHH with M53S, S57A
notes: FLAG3-His6 tagged
B9: T0263018B11 S101T (VHH, name in Kabat numbering)
VHH: B1 VHH with M53S, S109T
notes: FLAG3-His6 tagged
B10: T0263018B11 S52aP (VHH, name in Kabat numbering)
VHH: B1 VHH with M53P
notes: FLAG3-His6 tagged
B11: T0263018B11 S56K (VHH, name in Kabat numbering)
VHH: B1 VHH with M53S, S57K
notes: FLAG3-His6 tagged
B12: T0263018B11 S52aY (VHH, name in Kabat numbering)
VHH: B1 VHH with M53Y
notes: FLAG3-His6 tagged
B13: T0263018B11 S52aT (VHH, name in Kabat numbering)
VHH: B1 VHH with M53T
notes: FLAG3-His6 tagged
B14: T0263018B11 S101E (VHH, name in Kabat numbering)
VHH: B1 VHH with M53S, S109E
notes: FLAG3-His6 tagged
B15: T0263018B11 S52aV (VHH, name in Kabat numbering)
VHH: B1 VHH with M53V
notes: FLAG3-His6 tagged
B16: T0263018B11 S101Q (VHH, name in Kabat numbering)
VHH: B1 VHH with M53S, S109Q
notes: FLAG3-His6 tagged
B17: T0263018B11 S56T (VHH, name in Kabat numbering)
VHH: B1 VHH with M53S, S57T
notes: FLAG3-His6 tagged
B18: T0263018B11 S100Q (VHH, name in Kabat numbering)
VHH: B1 VHH with M53S, S104Q
notes: FLAG3-His6 tagged
B19: T0263018B11 S52aN (VHH, name in Kabat numbering)
VHH: B1 VHH with M53N
notes: FLAG3-His6 tagged
B20: T0263018B11 S101V (VHH, name in Kabat numbering)
VHH: B1 VHH with M53S, S109V
notes: FLAG3-His6 tagged
B21: T0263018B11 S56H (VHH, name in Kabat numbering)
VHH: B1 VHH with M53S, S57H
notes: FLAG3-His6 tagged
B22: T0263018B11 S52aR (VHH, name in Kabat numbering)
VHH: B1 VHH with M53R
notes: FLAG3-His6 tagged
B23: T0263018B11 S56Q (VHH, name in Kabat numbering)
VHH: B1 VHH with M53S, S57Q
notes: FLAG3-His6 tagged
B24: T0263018B11 S100M (VHH, name in Kabat numbering)
VHH: B1 VHH with M53S, S104M
notes: FLAG3-His6 tagged

Substitutions are numbered along the chain they refer to.

T2 sequence (chain, as listed by the source limits assumed, chain 1 of 2): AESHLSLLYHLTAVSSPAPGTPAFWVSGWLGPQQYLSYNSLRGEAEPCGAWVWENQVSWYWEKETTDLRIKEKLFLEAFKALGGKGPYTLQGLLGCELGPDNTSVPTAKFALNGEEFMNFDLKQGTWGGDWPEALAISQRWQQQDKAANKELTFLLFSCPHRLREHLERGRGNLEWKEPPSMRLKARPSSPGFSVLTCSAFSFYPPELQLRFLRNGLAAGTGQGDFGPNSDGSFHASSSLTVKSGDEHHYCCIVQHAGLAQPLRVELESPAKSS
T2 sequence (P61769 21-119 limits assumed, chain 2 of 2): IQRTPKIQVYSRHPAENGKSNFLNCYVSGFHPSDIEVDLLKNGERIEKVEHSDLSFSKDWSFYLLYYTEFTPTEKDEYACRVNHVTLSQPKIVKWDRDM

In one assay the target is T1, cyno FcRn/b2M (cyno, UniProt Q8SPV9 24-297; Q8SPW0 21-119, biotinylated).
T1 construct: bought recombinant biotinylated protein (Immunitrack ITF05 or ACRO FCM-C82W5); also called cFcRn; cFcRn/cb2M
T1 sequence (Q8SPV9 24-297 limits assumed, chain 1 of 2): as the sequence (chain, as listed by the source limits assumed, chain 1 of 2) above, with N39D, E44Q, G99S, S189G, S190N, L217M, S269T counted along it
T1 sequence (Q8SPW0 21-119 limits assumed, chain 2 of 2): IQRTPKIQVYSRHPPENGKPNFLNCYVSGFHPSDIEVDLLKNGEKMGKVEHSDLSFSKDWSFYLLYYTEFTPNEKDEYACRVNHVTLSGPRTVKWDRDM
Put plainly: SPR pH 7.4.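 Further: surface plasmon resonance kinetics, periplasmic extracts diluted 1:10 flowed over immobilized target at 25 °C, 120 s association then 600–3600 s dissociation, buffer with 150 mM NaCl.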
Experimental: (§1) All kinetic measurements have been performed on ProteOn XPR36 (BioRad Laboratories, Inc.), MASS-2 (Sierra sensors, Gmbh) or SPR-32 (Bruker Corporation). […] The phytip purified periplasmic extracts were diluted 1:10 in running buffer (CPA+150 mM NaCl+0.005% Tw20 at pH 5.5, pH 6.0 or pH 7.4) and injected over the ligand surfaces (association: 120 s at 45 μL/min; dissociation: 600s-3600 s at 45 μL/min). Experiments were carried out at 25° C.
Molecule B1 came in with an off-rate constant (koff) of 0.013 s⁻¹.
As to B2, the off-rate constant (koff) was 0.038 s⁻¹.
Same read-out and setting: in the case of B3 it was 0.043 s⁻¹.
Molecule B4 showed a koff of 0.037 s⁻¹.
For B5, the off-rate constant (koff) turned out to be 0.013 s⁻¹.
The molecule B6 returned an off-rate constant (koff) of 0.058 s⁻¹.
B7 yielded an off-rate constant (koff) of 0.083 s⁻¹.
B8: the koff was 0.045 s⁻¹.
In turn, B9 registered an off-rate constant (koff) of 0.019 s⁻¹. This koff is about 2.4-fold lower than that of the molecule before.
B10 came in with an off-rate (koff) of 0.021 s⁻¹.
In the case of B11, the koff is 0.044 s⁻¹.
Turning to B12, the off-rate constant (koff) came out at 0.023 s⁻¹.
As to B13, the koff was 0.059 s⁻¹.
The molecule B14 showed an off-rate constant (koff) of 0.0034 s⁻¹.
Molecule B15 had a dissociation rate constant (koff) of 0.095 s⁻¹.
On the same count and under the same terms, the result for B16 reads 0.016 s⁻¹.
In turn, B17 displayed a koff of 0.047 s⁻¹.
B18 had a dissociation rate constant (koff) of 0.058 s⁻¹.
In the case of B19, the koff came to 0.047 s⁻¹.
B20 showed a dissociation rate constant (koff) of 0.026 s⁻¹.
Take B21: the koff was determined as 0.046 s⁻¹.
The same measure, in the same setting: the result for B22 reads 0.091 s⁻¹; that for B23, 0.068 s⁻¹.
Take B24: the off-rate constant (koff) was 0.016 s⁻¹.

The next assay has as its target T2, human FcRn/b2M (human, UniProt P61769 21-119, biotinylated).
T2 construct: bought recombinant biotinylated protein (ACRO FCM-H82W4 or Immunitrack ITF01); also called hFcRn; hFcRn/hb2M
Put plainly: SPR pH 7.4.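 Further: surface plasmon resonance kinetics, periplasmic extracts diluted 1:10 flowed over immobilized target at 25 °C, 120 s association then 600–3600 s dissociation, buffer with 150 mM NaCl.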
Experimental: as §1
The molecule B1 registered a koff of 0.018 s⁻¹.
The same measure, in the same setting: in the case of B2 it was 0.044 s⁻¹.
The molecule B3 yielded a koff of 0.062 s⁻¹.
Same read-out and setting: in the case of B4 it was 0.048 s⁻¹; in that of B5, 0.02 s⁻¹.
The same measure, in the same setting: in the case of B6 it was 0.062 s⁻¹; in that of B7, 0.18 s⁻¹.
On the same count and under the same terms, in the case of B8 it was 0.051 s⁻¹; in that of B9, 0.025 s⁻¹.
Regarding B10, the koff is 0.029 s⁻¹.
Molecule B11 yielded a koff of 0.053 s⁻¹. This koff is about 1.8-fold higher than that of the molecule before.
The molecule B12 displayed a koff of 0.035 s⁻¹.
The molecule B13 showed an off-rate (koff) of 0.062 s⁻¹.
Take B14: the off-rate (koff) turned out to be 0.0078 s⁻¹. This koff lies about 7.9-fold lower than the previous one.
B15: the off-rate constant (koff) is 0.081 s⁻¹.
B16 yielded an off-rate constant (koff) of 0.025 s⁻¹.
B17 gave an off-rate constant (koff) of 0.055 s⁻¹.
As to B18, the koff amounted to 0.13 s⁻¹.
On the same count and under the same terms, the result for B19 reads 0.063 s⁻¹.
Same read-out and setting: in the case of B20 it was 0.032 s⁻¹; in that of B21, 0.055 s⁻¹.
Molecule B22 registered a koff of 0.13 s⁻¹.
Turning to B23, the koff was 0.067 s⁻¹.
In turn, B24 came in with a dissociation rate constant (koff) of 0.032 s⁻¹.

In another assay the target is T1, cyno FcRn/b2M. Put plainly: SPR off-rate; pH 7.4 vs pH 6.0.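 Further: surface plasmon resonance with diluted periplasmic extracts flowed over ligand surfaces, 120 s association and 600–3600 s dissociation at 25 °C, running buffer containing 150 mM NaCl.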
Experimental: as §1
Turning to B1, the “kd ratio pH 7.4/6.0” value came to 48.
Turning to B2, the “kd ratio pH 7.4/6.0” value was found to be 37.
As to B3, the “kd ratio pH 7.4/6.0” value stood at 54.
Regarding B4, the “kd ratio pH 7.4/6.0” value was 54.
B5: the “kd ratio pH 7.4/6.0” value was 28.
On to B6, for which the “kd ratio pH 7.4/6.0” value amounted to 45.
For the molecule B7, the “kd ratio pH 7.4/6.0” value is 69.
As to B8, the “kd ratio pH 7.4/6.0” value is 45.
Regarding B9, the “kd ratio pH 7.4/6.0” value was 54.
For B10, the “kd ratio pH 7.4/6.0” value stood at 71.
Same read-out and setting: the result for B11 reads 25; that for B12, 44; that for B13, 49.
On the same count and under the same terms, the result for B14 reads 36; that for B15, 45.
As for B16, the “kd ratio pH 7.4/6.0” value came out at 43.
With B17, the “kd ratio pH 7.4/6.0” value came to 47.
With B18, the “kd ratio pH 7.4/6.0” value came out at 69.
Consider B19, for which the “kd ratio pH 7.4/6.0” value amounted to 60.
Take B20: the “kd ratio pH 7.4/6.0” value worked out at 45.
The same measure, in the same setting: the result for B21 reads 36; that for B22, 61.
With B23, the “kd ratio pH 7.4/6.0” value turned out to be 38.
Still for that read-out and setting: in the case of B24 it was 68.

The next assay has as its target T2, human FcRn/b2M. Put plainly: SPR off-rate; pH 7.4 vs pH 6.0.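 Further: surface plasmon resonance with diluted periplasmic extracts flowed over ligand surfaces, 120 s association and 600–3600 s dissociation at 25 °C, running buffer containing 150 mM NaCl.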
Experimental: as §1
As to B1, the “kd ratio pH 7.4/6.0” value is 36.
In the case of B2, the “kd ratio pH 7.4/6.0” value stood at 34.
In the case of B3, the “kd ratio pH 7.4/6.0” value amounted to 41.
Regarding B4, the “kd ratio pH 7.4/6.0” value amounted to 44.
Take B5: the “kd ratio pH 7.4/6.0” value is 26.
Same read-out and setting: in the case of B6 it was 36; in that of B7, 54.
Consider B8, for which the “kd ratio pH 7.4/6.0” value is 39.
Still for that read-out and setting: in the case of B9 it was 44; in that of B10, 53; in that of B11, 25.
Regarding B12, the “kd ratio pH 7.4/6.0” value was found to be 42.
On the same count and under the same terms, the result for B13 reads 39; that for B14, 44; that for B15, 30.
B16: the “kd ratio pH 7.4/6.0” value is 45.
For B17, the “kd ratio pH 7.4/6.0” value was determined as 42.
Regarding B18, the “kd ratio pH 7.4/6.0” value worked out at 68.
On to B19, for which the “kd ratio pH 7.4/6.0” value was determined as 51.
Regarding B20, the “kd ratio pH 7.4/6.0” value was found to be 43.
On to B21, for which the “kd ratio pH 7.4/6.0” value amounted to 35.
For the molecule B22, the “kd ratio pH 7.4/6.0” value stood at 56.
Consider B23, for which the “kd ratio pH 7.4/6.0” value turned out to be 30.
Still for that read-out and setting: in the case of B24 it was 57.

The next assay deals with T1, cyno FcRn/b2M. In words: SPR pH 6.0.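 Further: surface plasmon resonance kinetics at 25 °C, diluted periplasmic extracts injected over immobilized ligand surfaces, 120 s association then 600–3600 s dissociation, running buffer containing 150 mM NaCl.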
Experimental: as §1
As to B1, the off-rate (koff) was 0.00027 s⁻¹.
B2 had a koff of 0.001 s⁻¹.
Molecule B3 displayed a koff of 0.0008 s⁻¹.
The same measure, in the same setting: in the case of B4 it was 0.00068 s⁻¹; in that of B5, 0.00045 s⁻¹.
On the same count and under the same terms, in the case of B6 it was 0.0013 s⁻¹; in that of B7, 0.0012 s⁻¹.
As to B8, the koff amounted to 0.001 s⁻¹.
The same measure, in the same setting: the result for B9 reads 0.00036 s⁻¹; that for B10, 0.0003 s⁻¹; that for B11, 0.0018 s⁻¹.
B12: the koff was found to be 0.00052 s⁻¹.
As to B13, the koff was 0.0012 s⁻¹.
Molecule B14 showed a koff of 9.4e-05 s⁻¹.
Same read-out and setting: the result for B15 reads 0.0021 s⁻¹; that for B16, 0.00038 s⁻¹; that for B17, 0.001 s⁻¹.
In turn, B18 registered a koff of 0.00084 s⁻¹.
Molecule B19 gave a koff of 0.00079 s⁻¹.
Take B20: the koff came out at 0.00058 s⁻¹.
Same read-out and setting: the result for B21 reads 0.0013 s⁻¹.
Turning to B22, the koff was found to be 0.0015 s⁻¹.
Still for that read-out and setting: the result for B23 reads 0.0018 s⁻¹; that for B24, 0.00024 s⁻¹.

For the next assay, the target named is T2, human FcRn/b2M. In words: SPR pH 6.0.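 Further: surface plasmon resonance kinetics at 25 °C, diluted periplasmic extracts injected over immobilized ligand surfaces, 120 s association then 600–3600 s dissociation, running buffer containing 150 mM NaCl.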
Experimental: as §1
Turning to B1, the koff is 0.00048 s⁻¹.
On the same count and under the same terms, in the case of B2 it was 0.0013 s⁻¹.
Regarding B3, the off-rate constant (koff) is 0.0015 s⁻¹.
The same measure, in the same setting: in the case of B4 it was 0.0011 s⁻¹.
Still for that read-out and setting: the result for B5 reads 0.00075 s⁻¹; that for B6, 0.0017 s⁻¹; that for B7, 0.0032 s⁻¹.
B8 yielded a koff of 0.0013 s⁻¹.
B9 showed a koff of 0.00057 s⁻¹. This koff lies about 2.3-fold lower than the previous one.
B10 yielded a koff of 0.00054 s⁻¹.
In turn, B11 yielded a koff of 0.0021 s⁻¹.
As to B12, the dissociation rate constant (koff) worked out at 0.00083 s⁻¹. This koff is about 2.5-fold lower than that of the molecule before.
Turning to B13, the koff was 0.0016 s⁻¹. Compared with the last molecule, the koff is about 1.9-fold higher.
The same measure, in the same setting: the result for B14 reads 0.00018 s⁻¹; that for B15, 0.0027 s⁻¹; that for B16, 0.00055 s⁻¹.
The same measure, in the same setting: the result for B17 reads 0.0013 s⁻¹; that for B18, 0.0019 s⁻¹.
B19 came in with a koff of 0.0012 s⁻¹.
Molecule B20 came in with a koff of 0.00073 s⁻¹.
For B21, the koff was 0.0016 s⁻¹.
Same read-out and setting: the result for B22 reads 0.0023 s⁻¹; that for B23, 0.0022 s⁻¹.
Same read-out and setting: the result for B24 reads 0.00056 s⁻¹.
